Biological target: 3xFLAG-CENP-T^Δ161–216 (chicken) (UniProt F1NPG5)

Mis12 complex (Mis12C) containing GFP-Dsn1^WT (from UniProt Q1T769 1-210; A0A8V0ZA15 1-290)
GFP-Dsn1 (Mis12C) level at mitotic kinetochores in CENP-C^Δ73 cells after IAA: 15%

Reference: PMC11612794
